{
  "source": "paper PMC8921914",
  "key": {"FcγRI": {"target": "FcγRI (UniProt P12314)", "sequence (P12314 16-374)": "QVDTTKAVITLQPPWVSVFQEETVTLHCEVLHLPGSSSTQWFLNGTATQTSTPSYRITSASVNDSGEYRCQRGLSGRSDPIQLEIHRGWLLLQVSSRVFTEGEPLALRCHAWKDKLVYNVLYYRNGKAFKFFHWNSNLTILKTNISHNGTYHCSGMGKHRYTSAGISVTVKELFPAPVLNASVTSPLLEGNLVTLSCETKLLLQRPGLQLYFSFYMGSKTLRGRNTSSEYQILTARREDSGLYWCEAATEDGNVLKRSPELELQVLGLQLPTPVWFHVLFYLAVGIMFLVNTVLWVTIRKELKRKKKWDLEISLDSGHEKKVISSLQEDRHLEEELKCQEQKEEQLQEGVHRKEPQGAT", "experiment": "SPR"}, "FcRn": {"target": "FcRn (UniProt P55899)", "sequence (P55899 whole entry, looked up, tested part not stated)": "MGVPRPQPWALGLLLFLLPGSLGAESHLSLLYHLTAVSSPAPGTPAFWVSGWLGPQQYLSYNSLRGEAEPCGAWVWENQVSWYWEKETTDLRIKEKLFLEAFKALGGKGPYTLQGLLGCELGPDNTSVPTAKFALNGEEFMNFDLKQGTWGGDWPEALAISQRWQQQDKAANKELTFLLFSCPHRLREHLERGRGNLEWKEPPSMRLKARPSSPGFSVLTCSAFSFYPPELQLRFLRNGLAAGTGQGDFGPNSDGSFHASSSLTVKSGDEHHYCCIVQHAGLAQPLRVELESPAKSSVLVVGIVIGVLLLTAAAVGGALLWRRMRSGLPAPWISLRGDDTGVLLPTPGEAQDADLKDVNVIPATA", "experiment": "SPR"}},
  "data": [
    {"substance": "CLN-049 (bispecific antibody)", "values": [
      {"measurement": "Kd", "setting": "FcγRI", "value": "> 1", "unit": "mM"},
      {"measurement": "Kd", "setting": "FcRn", "value": "> 1", "unit": "mM"}
    ]}
  ]
}
